Positions count from the first letter of the chain named. In names and notes the source's numbering stands. Each block holds one binder with its values, some of them ahead of it.
How the values were obtained:
[1] = target: T1, IFNλR1 (UniProt Q8IU57 21-228); test: BLI
T1 sequence (looked up): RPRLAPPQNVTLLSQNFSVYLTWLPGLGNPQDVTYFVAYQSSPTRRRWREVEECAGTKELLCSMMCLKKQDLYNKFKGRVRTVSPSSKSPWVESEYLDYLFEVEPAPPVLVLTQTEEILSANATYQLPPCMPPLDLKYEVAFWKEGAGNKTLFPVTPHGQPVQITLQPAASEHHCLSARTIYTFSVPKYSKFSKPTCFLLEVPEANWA

[2] = target: T2, IL10Rβ (UniProt Q08334 20-220); test: BLI
T2 sequence (looked up): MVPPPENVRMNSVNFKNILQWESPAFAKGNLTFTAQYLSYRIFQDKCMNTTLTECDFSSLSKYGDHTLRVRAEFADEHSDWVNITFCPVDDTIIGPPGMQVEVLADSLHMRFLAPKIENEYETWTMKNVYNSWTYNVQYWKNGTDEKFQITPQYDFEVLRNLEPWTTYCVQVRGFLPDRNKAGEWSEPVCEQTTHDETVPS

B3: IFNλ4 WT purified from E. coli (eIFNλ4) (ligand, human, UniProt K9M1U5 22-179, looked up)
chain: AAPRRCLLSHYRSLEPRTLAAAKALRDRYEEEALSWGQRNCSFRPRRDPPRPSSCARLRHVARGIADAQAVLSGLHRSELLPGAGPILELLAAAGRDVAACLELARPGSSRKVPGAQKRRHKPRRADSPRCRKASVVFNLLRLLTWELRLAAHSGPCL
modifications: biotinylated (site not stated) for BLI
Kd [1]: 19 nM
Kd [2]: 71 nM

B4: IFNλ4 variant M3 (P73N) (ligand, human, UniProt K9M1U5 22-179, looked up)
chain: B3 chain with P52N
modifications: biotinylated (site not stated) for BLI; N-glycans at N61 and at mutated P73N
Kd [1]: 22 nM
Kd [2]: 51 nM

The next binders have a lower Kd [1] than those just listed; values first:

Kd [1]: 17 nM
Kd [2]: 49 nM
B2: IFNλ4 variant M7 (L28N + P73N) (ligand, human, UniProt K9M1U5 22-179, looked up)
chain: B3 chain with L7N, P52N
modifications: biotinylated (site not stated) for BLI; N-glycans at N61 and at mutated P73N; mutated L28N not glycosylated

Kd [1]: 14 nM
Kd [2]: 49 nM
B1: IFNλ4 variant M1 (L28N) (ligand, human, UniProt K9M1U5 22-179, looked up)
chain: B3 chain with L7N
modifications: biotinylated (site not stated) for BLI; N-glycan at N61; mutated L28N not glycosylated
